Data published in the domain aggregation screens of Martell et al. (2025).

Assay: soluble fraction after stress (log2 fold change); higher = more stays soluble; pooled small domains, quantitative proteomics
Conditions: stress: 75 degC
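Further: 20 min heating vs room temperature control held 20 min.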

Row | Sequence | soluble fraction (log2)
1 | HMFRDFSETLLRKLQAAGGFLPFTDKTDAEAIAEHFQVSKKTFKRAVGTLYKQRRILIDDEGITLIG | -1.59
2 | HMFRPDYYEILQVDRHASPEVITAAYRQLLSIYNSEQDGNKQMIKLIQEAYGVLGDSQDRWLYDSWLDNN | -1.34
3 | HMFRSNAERAAHLASALPRAEAELAALQARGAATSENIYLRSSYFDALRYTEELRAAKRAQDALQGA | 0.195
4 | HMFSAASSQISSYVRSVVDKAQTYEQAYEILAKNPLGFKLDALEDELFRIIANAEILGADDDE | -0.976
5 | HMFSNATISGLKAGALVRVYNISGVAVSTLTADAEGKVSVDLNNLPKGVYILSTPSKSFKVLN | -2.65
6 | HMFSWRQHLDHFGFSDEIKKRLADAVFLNDDWNEIDRGVLTKEELLARFIENDPGIEKEIYMVMENIN | -0.835
7 | HMFYPIAHTLTKLNIRSGPGEQYQKLATFENNHDLVVLTQQNEWVQVRGKSDEQVIIGWVHSSFLSPT | -2.8
8 | HMFYQLTENQRRILSSLEQNPRVSAAHLAEEIGISSRKVENNLKKLKEIGLLQRHGSPRKGYWSINQGW | -0.938
9 | HMGAAAQLLHAVVLRVPAEDTMKFVSETPELRRYLGAPLGPTAALVRPGQEQELAAALQAHGILVEFDE | -0.45
10 | HMGAAITEAEAKQIALDHAGVSESETERMRVKLGRDDGVQEYEVNFYVGNREYDYDINAATGEIRSHDSE | 0.107
11 | HMGADPTTWPEIDAFVGRVAVTATGLFPSGQVEIDGRRFEARLAFGVAEPGARVVVRRRTDFGLLVEKETR | -2.38
12 | HMGADRLVGMTAIVTATIDPNDTDRKGRVQVEGEVWSALSDGRLIITEGSKVRITEMHGTRVRVEAI | -0.685
13 | HMGAEWTEMRVWTSTSGSKVTAEASSLTNGQVTLETKSGKRITLSIRKLVEADQKFLEAHFSK | -1.33
14 | HMGAGLLEPEPLKIEIQETQERLQKLQKALERDTETADSKERIKRAIEAHKARISQLQGLIE | 0.219
15 | HMGAKVFTVPNLIGKYAIEAGIILKKEGLSEGEVKEENSDKYAAGQIIDQYPAADSPAKENDKINYVVSIG | -0.066
16 | HMGANSAYMAMRDRIQQRLLAELSPGVTRSDTAEVRRVVERIFNETTAELGLPLSRLERNDIFDLVLADIL | -1.85
17 | HMGAPLAVGDSVRVVVSGPRAFVYTAPNGALSGAVRNGAAFTVLELSPDNTWARIGSGEWIKVEFLATG | -0.919
18 | HMGATYSQFLDQVDGGNVQKVTFSGDMRSGTNQISYTTRSGQSATITAPMDRDLINILRAKNVEIVQEEP | 0.232
19 | HMGAWQQTGFFRNRENAESLAEVLRQRGFSPVVREDTRPSGTVYYAVLVPDDGTTAARLKDAGIDSYPV | 0.121
20 | HMGDDYFTILGIERDATTDEIRSAYRRLSKKIHPDAQGSSALFRQVQEAYETLIDPSSRARYVAELNASQG | 0.00161
21 | HMGDERDRLLLARGKRIYQELIGSDRENVAAALREFEAVLAVNNRRAIHVMRQRLAELFGVYEEFLNEEFL | -4.51
22 | HMGDEVAVTEILVKVGDTVEADQSLLTVEGDKASMEVPAPFAGVVKAIQVQLGDKVVTGSPIMLFEV | 0.073
23 | HMGDFNYVMPDFRGLEAHDVSSFLNRNGFLLRPTEHEVSFTQRPGLILMHYPEPGYPFSRSSPITLVVS | -0.947
24 | HMGDGMEVWVNGSPVNLTGKDSFIFVDIFDFIDFDLTASKGRLIVIKVNGEYAEYTRPLHNGDTIEIYWEE | 0.0346
25 | HMGDGRVGVITASIAYEYAKEVFPEGTSFLKLGLTFPLPMDLIRDFASKVEKLYVIEELEPL | -0.122
26 | HMGDHYTALGLSIDATPEEIRSAYFLAARRSHPDANPDAQTTEWFLRVQEAYDILSNPRRRAEYDASLP | -0.6

Row | Sequence | soluble fraction (log2)
27 | HMGDKRPIAVGDYVKLEGQDTPGQVLSISGKNATVGFGMLKTTVKLDRLRHTMAKPQTGASAGVR | -0.293
28 | HMGDKVTIPNLIDMKLTDAQNQYKPQGFSIVKNGERESDKEAGTILEQDKAAGTEISGKDIRIFVVVSSGS | 0.0688
29 | HMGDLAAAGNHTLEVMGFPQHPDESYRHFVGNGIPKLIERMLPAGHDKETEQKAYDIFMEYYSAHK | 0.609
30 | HMGDPMAIMQLSSNTTPEYWEAYQKYHIQEYEQSNFIRYVNGISVLDDDFVDKVLITIDQHGRIFSELKS | -3.21
31 | HMGDSEMPVSEVVRLAKLDQISSIEISGTKLTIITNNLETYTSRIEENSTIIEILQRAGVDIGGLEIYPHG | -1.53
32 | HMGDVSGFLRGVLADGPVPAKTVFSEASGAGYSRDQIQRAARKIGVERRKTGMAGGWVWELEP | -0.148
33 | HMGEAYVVPNVKNKTLGEAQLALHNQKLEGLVVDSSYVKGLPDGMILDQNPAGGARVKEGRTIYLTITTS | -0.0978
34 | HMGEDFPYVAYATDSVRLRSKPSSSGDILAVIRQGDAVLITGSDGNYKIVEYEGRKGYVISAFLSQTP | -1.15
35 | HMGEDLTIDQLAAEVDMTVRNIRAHQARGLLPPPTIKGRIGYYGPLHRRRLQQIRAMQEEGLNLAAIAKVV | -0.889
36 | HMGEDPYQMLGLTRQASDEEVRLAWRKLMRENHPDSLASRGVPQEFVKRATEQVAQINAAWDRIKRERG | -0.25
37 | HMGEELIEIQNLRNKERREAEAILKNLDLVPVIQEQFDDTVPINRVITTDPGPDSTVKKGTTVMIYVSKGP | 0.415
38 | HMGEENLKYPLLTDGSVKTTVLEAIDKDEKWLREELAKQGYDDLSKLFLVDYLGGQLVVTPY | 0.144
39 | HMGEESIAELISNPKLSDAKRTVILDLLSRGLTVDQIKPYIQSDDPYTAEQLQFELYKLFFTQI | -0.578
40 | HMGEGRVRLAQEAANRFMTAMAGDRPGFEEAGRALFAGDRARFHAETEGWPEDIRDHARRLAEPALQ | 0.144
41 | HMGEIILVPDVKAQGVSDARYTLNQAGLDAVIADSSYNRNSPPGAVLEQMPAPGSKVKSGHAIYLIINTT | 0.138
42 | HMGELTSILVATKQIEPGETLSSSNTQVKSWISDLIPEGAITNPESVMGRTVSSVIGVGMPVVSLHLR | 0.462
43 | HMGELVIPPLRERTVVDAVAEAERLGFVVQVEPVASSLPEGRVLGQSPEPGTRARKSQVVVLQVSRG | -0.614
44 | HMGEPLTVVAAAGGDRLDRWLAGQLAGRSRAEIQRWIEAGQVTLAGRSLKASYRLSAGDAIDVAIPPPE | -0.366
45 | HMGEPVEIEEPITVRSLSEALGLKSSAIISHLMRQGVFATINQNLDKETAELIAAEYGIELRIK | -0.0834
46 | HMGETDDDFRELEEFVEKTKFDKLGTFMYSKEEGTPAARLPEQIHGNTKKSRYNKIMSIQQKVSNEN | 0.253
47 | HMGETPEILRDWEAAQNAVNDMLSKYAPGGYMGKIIYPLLTPLKERLEAGERTPDLYNAIVEAT | 0.119
48 | HMGETYTIPDVRGYTLEDAMELPEIKENGFTIIEGRQIVDADVPVGQIISQTPEAESIAKSNVKEITVNIS | 0.239
49 | HMGEVPVETKDGIKVHVHTVDKSQTAYGISRLYNITLNELYESNPEAKLELSIGQKLYFPVK | -0.199
50 | HMGEVVRAPMPGNVLKMEVAQGQEVEEGDLLLVLEAMKMENDIVAPKGGIVIQLVVDKGMVVETDDPLVVI | -0.339
51 | HMGEWNSVFSVPSSVVDKHLKTASSVYVKVLLVILRNAGNRISDQQISEQLSVPVDEVQEAIRYWNAAGIF | -2.76
52 | HMGFAANLSRLMEYHNISMYRLAKEVGVHQTTVKNWLEEESEPKIAALEKIVGLLGVSYDELLG | -4.58

Row | Sequence | soluble fraction (log2)
53 | HMGFLTGNTQGEVNRKTKNQMVNIFLPTTPNPTSGFLLFVPKKDILRLTMTVEEGIKMIISAGMLTPS | -0.527
54 | HMGFTDREREIIRNDLVATGRELFGTFGLKKTSIEDLTKAVGIAQGSFYTFFNSKEELYLEVMDREGEA | -1.14
55 | HMGGALSPDFGWLAMIDPDEGRAITLYDIASGEAIAVLDTHEARVAALAWSPDGTRLASGDQNGLIVQWEI | -0.31
56 | HMGGEEPYGSGSLRLAAGAVVPSGYTIKGNEDSMLYHTTESPWYKQTIAEVWFNAESAAQRAGFTRWDAKD | -0.137
57 | HMGGEIGSGKNGYVAFYKGKKVDVKADSMYGAQKTAAKYFNAKKEYDVNVVLAEVDGKQYVQS | 0.547
58 | HMGGGVERLTPRQREVLGYMAEGRSNSWIAGAIGFSEKAVVQHTSKIYDALGLAVDADDHRRVLAVLRYLT | -1.44
59 | HMGGKWKLRILWHIHHGDTRFSTLKRGIPEISEKILAQQLRELEEHQLIKRRVVTVMPPHVVYEL | -2.37
60 | HMGGLAEIILNAIEIEGGFLPITDKSAPELIQSRLGMSKKAFKEAVGTLYKNRDIAIEPNGLRKI | -0.452
61 | HMGGLALAEREVVEWLSQRNLLPSPDVVARAAAHPDGLGWLERSLAVLEGPRLFLGLGDLVPEP | -0.688
62 | HMGGLAVQLVHAMTDQIRSGRLKAGDKLPTEAAIMKDFGVSRTVVREAISRLQASGWVDTRHGIGTFVLHQ | -2.1
63 | HMGGLIEPLSARELEVLELMSLGKTNQEIARDLVVASGTIKAHAASIYRKLDAANRTEAVTHARELGIL | 0.471
64 | HMGGPEVLELEDVKVGSPGPDEIKVTNHAIGLNYIDTYHRSGLYPLKLPSGIGLEAAGKVEEIGSNV | 0.00701
65 | HMGGQEEALNRLVLRELLGTLEKKERDLIVRRYFYDQTQTKIAEALGISQVQVSRMEKRILKKMREGF | -0.98
66 | HMGGRSARVRRAVLDAVVELLGEGGVRAVTIAEVAKRSGVNASSIYRRWRSIDALILDAAQDL | -2.51
67 | HMGGSDIYLGAFNIPQGSVRVTSGGQALTEGKDFTIDYNLGSVKIINQAILNSGIPVSVSYENNAG | 0.0185
68 | HMGGSLADAKRFLADLLADGPVPAKGVRADADGAGHTWPTIRRAQKALGIEATKTGMKGGWVWALPR | -0.165
69 | HMGGSVYTVQKGDTLWSIAKEQLGSPLRYAEIYDLNKDVIEEAARGRGKKDSSNGHWLVVGTSLQIPEAT | 0.184
70 | HMGGTAGKINAIGVNFRTGPSTSYTSLGLLGKDTAVTVIGTSGKWYKVTIVSTGKTGYVYATYVNLTP | -2.25
71 | HMGGVIEDDRGQWAHPGEVTKINSNNITMKGVDFPVLGISDTGDKKMMQPGKDYKFDGNSVTEYPMA | -0.24
72 | HMGGWEEGVYVVREGDTLSDIVHDAVKGTEIHPDFILNAIVRVNPSAFVRGNPSWMLAGKKIK | -0.0613
73 | HMGGYVTGTIDLTKFGYAFVITEESEDDVFVAARNLNTALHGDQVKVLLYARHKGKRPEGEVVEIISRSRA | -2.35
74 | HMGHEEPITFDRLPQAAQTFLKTHFDTLTVAYIVADRKFMGVEYEVKYTDRTEVDFRSDGQWESV | 0.085
75 | HMGHKTLTVELQEKIENLPQTLDKYNLTLGNNKMSVDYTYSVKEKQTGITNLLQDLKEHKFDIVYLVGQDN | 0.343
76 | HMGHLSNENAGRLLDRVLNDKIHAIMLGHLSKENNMPELAHEAVRMEITMGESRYKADDFPIYVA | -0.0465
